Measured values from US20110311517A1, “Antibodies and methods for treating estrogen receptor-associated diseases” (SHENOGEN PHARMA GROUP, LTD., priority 2009, published 2011).
Marks after values point to notes of the source that are not given here.

Columns and labels:
ERα36 = target: T1, ERα36 (Homo sapiens, UniProt P03372); experiment: ELISA of re-natured ScFv binding to ERα36
T1 construct: made in house; host or cells: chemical synthesis (no expression host)
T1 sequence (P03372 284-310 isoform P03372-4 limits assumed): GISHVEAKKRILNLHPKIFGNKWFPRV
Protocol: Streptavidin-coated 96-well plates were washed twice with PBS. Biotinylated ERα36 (final concentration of 20 μg/ml) was added into each testing well. The plates were incubated for 2 h at room temperature and washed three times with PBST. Re-natured ScFv samples (100 μl, S14A1r1, S24A2r2, S33A2r1, S41A3r3, S53A1r1, S66A1r1 and S72A2r1) were added into the testing wells respectively. Each ScFv was diluted five times in five gradients, and two parallel wells were loaded with each ScFv at each gradient. The plates were incubated at 37° C. for 1 h. The plates were washed three times with PBST, followed by addition of 100 μl anti-His-6 mouse monoclonal antibody (1:2000 dilution) per well and 1 h incubation at 37° C. The plates were washed three times with PBST, followed by addition of 100 μl goat anti-mouse-HRP (1:2500 dilution) per well and 1 h incubation at 37° C. The plates were washed six times with PBST, followed by addition of 100 μl OPD to develop under the protection from light. The reactions were terminated by adding 50 μl 2M H2SO4 to each well, and data were collected by microplate reader at 490 nm.
One positive control and three negative controls were performed in parallel. The positive control used rabbit anti-ER multi-clonal antibody serum in replacement of the ScFv re-natured sample and goat-anti-rabbit-HRP in replacement of goat-anti-mouse HRP.

[1] = test system: Human breast tumor BCAP-37; experiment: Tumor growth inhibition in BCAP-37 tumor-bearing nude mice; assay type: in vivo, BALB/c-nu nude mice
Text: 49 female BALB/c-nu nude mice (provided by department of laboratory animal science, Peking University Health Science Center) were used in the studies.
(§1) The tested animals were grouped into 7 groups with 7 nude mice in each group. The seven groups are the negative control group treated with human IgG antibody (purchased from Beijing Biosynthesis Biotechnology Co. Ltd.), the positive control group treated with herceptin (provided by Beijing Shenogen pharma group), the multi-clonal antibody test group treated with rabbit anti-ERα36 multi-clonal antibody (provided by Wang, Zhao-Yi group, Creighton University), and the monoclonal antibody test groups treated with human anti-ERα36 monoclonal ScFv1, ScFv3, ScFv4 and ScFv7 respectively.
(§2) The test groups were administered with the same dose of rabbit anti-ERα36 multi-clonal antibody, human anti-ERα36 monoclonal ScFv1, ScFv3, ScFv4 and ScFv7 respectively (5 mg/kg, 100 μg/dose). The positive control group was administered with 5 mg/kg herceptin (100 μg/dose,), and the negative control group was administered with 5 mg/kg IgG antibody (100 μg/dose).
(§3) Human breast tumor BCAP-37 (estrogen receptor positive, provided by department of pharmacology, Institute of Materia Medica, Chinese Academy of Medical Sciences) was implanted subcutaneously into the armpit of the right forelimb of each tested nude mouse. Diethylstilbestrol was administered by gavage with the dose of 7 μg/day for 9 consecutive days after the implantation. On day 10, the mice were grouped into 7 groups and administered with the corresponding drug via intravenous injection, at a dosing interval of 3-4 days, for 6 consecutive doses. Every 3-4 days, the tumor-bearing mice were weighed and their tumor sizes were measured. Parameters were calculated using the following equations:
Volume of Tumor in animals of each group (VT): Vt=½×a×b^2, (Equation 1),
wherein a and b represent the length and width of the tumor, respectively;
wherein V0 is the volume of tumor before drug administration at the time of grouping, Vt is the volume of tumor at each measurement; the calculation method of V0 is the same as that of Vt;
wherein TRTV is the arithmetic mean of RTV of the test groups, and CRTV is the arithmetic mean of RTV of the negative control group.
The tumor bearing mice in each group were terminated after 21 days of observations and drug administrations. The tumors were then excised from the animals, photographed and weighed on 1/10000 analytical balance. The average tumor weights and tumor growth inhibition rates were calculated:
All experimental data were shown in mean±standard deviation. Groups were compared using statistical t test.

[2] = Body weight and mortality of tumor-bearing nude mice during drug administration; assay type: in vivo, BALB/c-nu nude mice; settings: mean ± SD
Text: as §1, §2
as §3, with “equations: […]” for “equations:”

[3] = ScFv concentration 170.00 μg/ml
[4] = BCAP-37 nude mice, 5 mg/kg i.v. every 3-4 days, 6 doses, mean ± SD
[5] = BCAP-37 nude mice, 5 mg/kg i.v. every 3-4 days, Vt relative to V0, mean ± SD
[6] = 5 mg/kg i.v. every 3-4 days, 6 doses
[7] = ScFv concentration 235.00 μg/ml

B1: ScFv3: fully human anti-ERα36 single chain antibody, SEQ ID NO: 7 (protein)
scFv: QSVLTQPASVSGSPGQSITISCTGTSSDVGGYNYVSWYQQHPGKAPKLMIYDVSKRPSGVSNRFSGSKSGNTASLTISGLQAEDEADYYCSSYTSSSTLVFGGGTKLTVLGSGGSTITSYNVYYTKLSSSGTEVQLVQSGGGVAQPGRSLRLSCAASGITFNSYGMHWVRQAPGKGLEWVAVMPYDGSNEYYADSVKGRFTISRDNSKNTLYLQMNSLRAEDTAVYYCAKGSGMVQLWADAFDVWGQGTMVTVSSAS
modifications: scFv3
ERα36; ScFv concentration 1.44 μg/ml
  OD490 Well1: 0.242
  OD490 Well2: 0.037
ERα36; ScFv concentration 7.20 μg/ml
  OD490 Well1: 0.290
  OD490 Well2: 0.229
ERα36; ScFv concentration 36.00 μg/ml
  OD490 Well1: 0.448
  OD490 Well2: 0.344
ERα36; [3]
  OD490 Well1: 1.459
  OD490 Well2: 1.349
[1]; [4]
  Tumor volumes, Day 4 after drug administration: 171.91 ± 73.68^b mm^3
  Tumor volumes, Day 7 after drug administration: 302.93 ± 100.01^b mm^3
  Tumor volumes, Day 11 after drug administration: 1442.70 ± 406.32^b mm^3
  Tumor volumes, Day 14 after drug administration: 1993.02 ± 405.84^b mm^3
  Tumor volumes, Day 18 after drug administration: 2859.65 ± 427.16^b mm^3
  Tumor volumes, Day 21 after drug administration: 3324.97 ± 460.89^b mm^3
[1]; [5]
  relative tumor volume (RTV), Day 4: 3.61 ± 2.03^b
  relative tumor volume (RTV), Day 7: 6.31 ± 2.88^b
  relative tumor volume (RTV), Day 11: 30.44 ± 14.49^b
  relative tumor volume (RTV), Day 14: 41.87 ± 16.82^b
  relative tumor volume (RTV), Day 18: 59.61 ± 20.46^b
  relative tumor volume (RTV), Day 21: 69.18 ± 22.85^b
[1]; BCAP-37 nude mice, 5 mg/kg i.v., 6 doses
  inhibition of tumor growth in tumor-bearing mice (in words): strongest inhibitory activities
[1]; baseline, BCAP-37 nude mice, 5 mg/kg i.v. every 3-4 days, 6 doses, mean ± SD
  Tumor volumes, Before drug administration: 50.51 ± 10.12 mm^3
[1]; excised tumors after 21 days
  tumor sizes at pathological examination (in words): the smallest among the mono-clonal antibody groups
[1]; excised tumors after 21 days, BCAP-37 nude mice, 5 mg/kg i.v., 6 doses, mean ± SD
  Tumor weight: 2.738 ± 0.344 g
[1]; from average tumor weights after 21 days vs negative control, 5 mg/kg i.v., 6 doses
  Tumor growth inhibition rate (%): 59.76%
[2]; [6]
  Body weights of tumor-bearing nude mice, Day 4 after drug administration: 20.28 ± 0.54
  Body weights of tumor-bearing nude mice, Day 7 after drug administration: 20.75 ± 0.31
  Body weights of tumor-bearing nude mice, Day 11 after drug administration: 21.24 ± 0.55
  Body weights of tumor-bearing nude mice, Day 14 after drug administration: 22.04 ± 0.59
  Body weights of tumor-bearing nude mice, Day 18 after drug administration: 23.38 ± 0.46
  Body weights of tumor-bearing nude mice, Day 21 after drug administration: 23.62 ± 0.36
[2]; baseline at the time of grouping
  body weight when grouped: 19.94 ± 0.81
[2]; baseline, 5 mg/kg i.v. every 3-4 days, 6 doses
  Body weights of tumor-bearing nude mice, Before drug administration: 19.94 ± 0.81

B2: ScFv2: fully human anti-ERα36 single chain antibody, SEQ ID NO: 5 (protein)
scFv: QSALTQPASVSGSPGQSITISCTGTSSDVGGYNYVSWYQQHPGKAPKLMIYDVSKRPSGVSNRFSGSKSGNTASLTISGLQAEDEADYYCSSYTSSSTLVFGGGTKLTVLGSGGSTITSYNVYYTKLSSSGTQVQLLESGAEVKKPGASVKVSCKASGYTFTAYYMHWVRQAPGQGLEWMAMIDPSGSITSYAQKFQGRVTMSRDTSTSTLYMELSSLRSDDTAVYYCARDLKEGFSVPGAFDIWGQGTMVTVSSAS
modifications: scFv2
ERα36; ScFv concentration 1.40 μg/ml
  OD490 Well1: 0.095
  OD490 Well2: 0.096
ERα36; ScFv concentration 7.00 μg/ml
  OD490 Well1: 0.138
  OD490 Well2: 0.121
ERα36; ScFv concentration 35.00 μg/ml
  OD490 Well1: 0.343
  OD490 Well2: 0.359

B3: ScFv6: fully human anti-ERα36 single chain antibody, SEQ ID NO: 13 (protein)
scFv: EIVMTQSPGTLSLSPGERATLSCRASQSVDSNFLAWYQQRPGQAPRLLIYGVSSSATGIPDRFSGSGSGTDFTLSIDRLEPEDFAVYYCQQYGSSPTFGGGTKLEIKRSGGSTITSYNVYYTKLSSSGTQVQLQESGGGLVQPGRSLRLSCAASGFTFDDYAMHWVRQAPGKGLEWVSGISWNSGSIGYADSVKGRFTISRDNAKNSLYLQMNSLRAEDTAVYYCARSGDYGAFDIWGQGTMVTVSSAS
modifications: scFv6
ERα36; ScFv concentration 0.38 μg/ml
  OD490 Well1: 0.127
  OD490 Well2: 0.129
ERα36; ScFv concentration 1.90 μg/ml
  OD490 Well1: 0.161
  OD490 Well2: 0.162
ERα36; ScFv concentration 9.40 μg/ml
  OD490 Well1: 0.210
  OD490 Well2: 0.209
ERα36; ScFv concentration 47.00 μg/ml
  OD490 Well1: 0.327
  OD490 Well2: 0.326
ERα36; [7]
  OD490 Well1: 0.677
  OD490 Well2: 0.664
